The record followed here is PMC12207360, “Hyperpolarization Modulation of the T‐Type hCav3.2 Channel by Human Synenkephalin [1–53], a Shrew Neurotoxin Analogue without Paralytic Effects” (Angewandte Chemie (International Ed. in English), 2025).

Where no end group is shown, it is not given here.

One series concerns trypsin. Put plainly: Trypsin digestion. The conditions noted are these: intact peptide, without disulfide reduction. As for the experimental part: (§1) To determine the connectivity of disulfide bonds in synthetic 2, enzymatic digestion and subsequent fragment peptide analysis were performed. […] However, due to high proteolytic stability, analysis of these degraded products provided little information on the disulfide bond connectivity in 2. To perform stepwise S‐alkylation with limiting reduction of disulfide bonds,^[ [52], [53] ^] 2 was denatured with 6 M aq. guanidine hydrochloride (GdmCl)/0.1 M aq. citrate, followed by tris(2‐carboxyethyl)phosphine (TCEP) reduction and Michael addition to N‐ethylmaleimide (NEM). As a result, we obtained six kinds of S‐alkylated products (2SS‐a/b/c and 1SS‐a/b/c) with one or two disulfide bonds cleaved, respectively, along with unreacted 2 (3SS) and a fully S‐alkylated product (0SS) (Scheme 1a and Figure S4a). HPLC‐purified 1SS‐a (3) and 1SS‐b (4), which have different patterns of four Cys(S‐Nem) residues, were then reduced with DTT and alkylated with iodoacetamide.

In another series the test system is several enzymes. Description: Susceptibility to several enzymes / degradation. The following applies: intact hSYN; compared with paralytic effect of BPP2 on mealworms. The procedure: as §1
The format of series [1] is physicochemical. The conditions noted are these: cysteine/cystine redox condition, 20% EtOH / 0.1 M aq. NH4OAc, pH 8.5, 37 °C; misfolded products predominantly converted to 2. From the text:
We first examined the preparation of hSYN from the linear precursor peptide 1 (Scheme 1a). Oxidation of 1 in air or with DMSO gave only misfolded analogues with two (2SS) and/or three (3SS) disulfide bonds (Figure S1a,b). Meanwhile, a redox condition using cysteine / cystine in EtOH / aq. NH4OAc^[ [51] ^] smoothly promoted the formation of three disulfide bonds to afford hSYN (2) in 65% yield almost as a single isomer, along with trace amounts of misfolded 3SS analogue. […]
SH 前述の 22 の混合物に、前述のバッファーSHB (290 µL; 第四章第一節第四項) に溶解したSH 21SH
N-terminal segment(7.2 mg, 2.1 µmol) と TCEP-HCl (0.32 mg, 1.1 µmol) C-terminal segmentを加えた。6 M 水酸化ナトリウム水溶液1 で反応溶液を pH 7.0 に調整した後、室温で 22 時間攪拌した。得られた混合物を ODS カ
ラムクロマトグラフィー [COSMOSIL 75 C18 OPN (φ 8 x 8 mm), MeCN / H2O (0.1% TFA) = 0:1 Linear peptide 1. […]
rate 1.0 mL/min, UV 215 nm (A; 0.1% aq. TFA, B; 0.08% TFA/MeCN) ]. MS (MALDI-TO F ) m/z 3001.0 (calculated for […]
2: tR 12.2 min [Develosil® ODS HG-5 (5 µm, f 4.6 mm × 250 mm), temp. […] 40 °C, 25% for 10 min and 25–45% linear gradient for 20 min, flow rate […], UV215 nm (A; 0.1% aq. TFA, B; 0.08% TFA/MeCN), see Figure S7]; MS (MALDI-TO F ) m/z 2998.0 (calculated […]

Take “human synenkephalin [1–53] (ECSQDCATCSYRLVRPADINFLACVMECEGKLPSLKIWETCKELLQLSKPELP; disulfide (positions not given here); also: Type II disulfides, places not given here; UniProt P01210 25-77, looked up, fragment) [compound 2, human synenkephalin N-terminal part [1–53], three disulfide bonds Cys(I)–Cys(V), Cys(II)–Cys(IV), Cys(III)–Cys(VI)]”: the “proteolytic stability toward trypsin” value in the series on trypsin is on record as “partially digested”. Further, the enzymatic degradation entry in the series on several enzymes was “susceptible to several enzymes, its degradation was much slower than the paralytic effect of BPP2 on mealworms”. The thermodynamic stability result in series [1] was “most thermodynamically stable”.
